According to US12091776B2, “Protease activity profiling via programmable phage display of comprehensive proteome-scale peptide libraries” (THE JOHNS HOPKINS UNIVERSITY, priority 2019, dated 2024):

Tests used:
[1] = target: T1, endogenous Caspase-1 (Homo sapiens, UniProt P29466); test: In vitro stimulation of the inflammasome in THP-1 cells (Western blot); type: cell-based; conditions: PMA differentiated THP-1 cells, LPS and Nigericin
T1 construct: endogenous in cells; host or cells: PMA-differentiated THP-1 cells
T1 sequence (P29466 120-404): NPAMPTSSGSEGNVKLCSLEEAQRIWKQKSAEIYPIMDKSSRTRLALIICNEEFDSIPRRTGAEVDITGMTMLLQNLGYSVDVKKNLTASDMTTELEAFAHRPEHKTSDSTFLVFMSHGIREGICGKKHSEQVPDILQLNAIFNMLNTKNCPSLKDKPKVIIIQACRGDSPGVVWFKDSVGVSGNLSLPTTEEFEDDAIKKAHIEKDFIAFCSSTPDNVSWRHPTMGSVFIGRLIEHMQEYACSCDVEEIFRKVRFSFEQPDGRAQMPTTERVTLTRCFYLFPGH
Experimental: THP-1 cells were cultured in RPMI-1640 media with Glutamax (Gibco, ThermoFisher, Cat #61870127), supplemented with 10% FBS (Hyclone SH30071, GE Life Sciences), and 1× Antibiotic-Antimycotic (Gibco, ThermoFisher, Cat #15240062), referred to as complete RPMI. To differentiate THP-1 cells into macrophages, 1×10^6 THP-1 cells were added per well of a 6-well plate in complete RPMI medium containing 50 ng/ml Phorbol 12-myristate 13-acetate (PMA, diluted in RPMI medium from a 1 mg/ml PMA stock in DMSO, Millipore Sigma, Cat. No. P1585). After 48 hours when the cells become adherent, the medium with PMA was removed, cells washed in 1×PBS once, and fresh complete RPMI was added. Cells were allowed to rest for an additional 24 hours before inflammasome activation with LPS and Nigericin.
A 6-well plate of PMA differentiated THP-1 cells were treated with 0, 1 or 0.1 μg/ml LPS (Millipore Sigma, Cat. No. LPS25) for 3.5 hours. After 3.5 hours, cells were treated with 2.5 μM Nigericin for an additional 30 minutes to activate the inflammasome. Cells were washed in 1×PBS and lysed in 1× mammalian cell extraction buffer (BioVision, Cat. No. K269) containing 2 μM Dithiothreitol (DTT). Nuclei were spun down by centrifugation (10,000 rpm, 5 minutes, 4° C.) and the cleared supernatant was used to perform Western blots. […]

[2] = target: T2, Caspase-1 (Homo sapiens, UniProt P29466); test: SEPARATE assay: human peptidome library digest with Caspase-1; type: biochemical; conditions: unstimulated THP-1 cell lysate supplemented with 0.1 units of recombinant Caspase-1
T2 construct: purchased BioVision
T2 sequence (P29466 120-297 limits assumed): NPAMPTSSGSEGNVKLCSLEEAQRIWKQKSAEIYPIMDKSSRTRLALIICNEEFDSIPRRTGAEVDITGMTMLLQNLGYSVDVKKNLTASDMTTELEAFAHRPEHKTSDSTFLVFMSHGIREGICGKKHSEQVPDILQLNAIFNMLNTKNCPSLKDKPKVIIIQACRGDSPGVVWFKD
T2 sequence (P29466 317-404 limits assumed): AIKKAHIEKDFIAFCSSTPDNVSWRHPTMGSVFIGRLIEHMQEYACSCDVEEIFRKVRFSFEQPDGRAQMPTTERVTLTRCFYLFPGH
Experimental: (§1) Streptavidin-coupled magnetic beads (Dynabeads M-280 Streptavidin, ThermoFisher Scientific) were washed (TBS, pH 7.4, 0.01% NP40) and resuspended in binding buffer (TBS, pH 7.4, 0.001% NP40) containing 2E9 plaque forming units per 10 μl of bead slurry. End-over-end mixing at room temperature was performed for one hour. Phage-coated beads were washed three times with wash buffer and transferred into two protein LoBind Eppendorf tubes blocked with TBS, pH 7.4 containing 1% BSA.
Digestion occurred overnight at room temperature with end-over-end rotation. […]
Library PCR preparation, high-throughput DNA sequencing, and peptide read count data generation was performed as described previously.^44 Briefly, library peptide inserts are amplified by resuspending 10 μl of FLAG-coated Protein G beads in PCR1 master mix containing the T7-Pep2_PCR1_F forward primer ([…]) (SEQ ID NO:3) and a T7-SEPARATE vector specific reverse primer ([…]) (SEQ ID NO:4), which includes an adapter sequence for sample-specific barcoding and Illumina P7 adapter incorporation during a subsequent PCR2 reaction. The PCR2 amplicons are pooled and sequenced using an Illumina NextSeq instrument in standard output mode to obtain single-end 50 nucleotide reads. Dual indexed sample demultiplexing and clonal read count determination were performed using exact sequence matching. […]

[3] = target: T2, Caspase-1; test: HUWE1 cleavage assay using recombinant Caspase-1 in THP-1 lysate (Western blot); type: biochemical; conditions: recombinant Caspase-1 added to unstimulated THP-1 cell lysates; time-dependent
Experimental: Recombinant Caspase-1 (rCaspase-1) was diluted to 0.1 U/μl in 1× mammalian cell extraction buffer containing 2 μM Dithiothreitol (DTT). This buffer preserves enzymatic activity of proteases. Unstimulated, PMA differentiated THP-1 cells were also lysed in 1× mammalian cell extraction buffer with 200 μl of buffer to lyse one well of a 6-well plate (˜1×10^6 cells). Protease digests were set up with 50 μl of lysate (˜250,000 cells).
30 μl of protein lysates were mixed with 10 μl of 4× NuPage LDS sample loading buffer (Thermo Fisher, Cat. No. NP0007, final concentration to 1×). 4-12% NuPage Bis-Tris gels (Thermo Fisher, Cat. No. NP0321) were loaded with 35 μl of each sample along with high molecular weight standards (HiMark protein ladder, Thermo Fisher, Cat. No. LC5699) and resolved in 1× NuPAGE™ MES SDS Running Buffer (Thermo Fisher, Cat. No. NP0002) at 150V for 50-60 minutes. After suitable resolution of proteins, the gels were transferred to a PVDF membrane by the ‘wet transfer’ method using 1× NuPage transfer buffer (Thermo Fisher, Cat. No. NP00061) overnight at 4° C., 50 mA constant current. After transfer is complete, the membranes were washed in 1× tris buffered saline containing 0.01% Tween-20 (TBS-T), blocked for 30 minutes with 5% milk in TBS-T and probed with primary antibodies and HRP conjugated secondary antibodies with TBS-T washing in between. […]

[4] = target: T2, Caspase-1; test: SEPARATE assay: 56-amino acid mouse peptidome library digested with Caspase-1; type: biochemical; conditions: selected peptides, mouse library (56-aa tiles)
Experimental: as §1
Digestion occurred overnight at room temperature with end-over-end rotation. […] To remove any residual biotinylated phage that may have been nonspecifically released, the 150 μl supernatant of the quenched digest reaction is then incubated with a fresh 10 μl of slurry volume M280 streptavidin beads (pre-washed three times with wash buffer) in a LoBind Eppendorf tube blocked with TBS, pH 7.4 containing 1% BSA at room temperature for one hour with end-over-end rotation.
10 μl slurry volume of protein G magnetic dynabeads were washed in buffer (TBS, pH 7.4, 0.01% NP40) and then resuspended in 50 μl TBS, pH 7.4, 0.01% NP40 containing 4 μg of M2 FLAG antibody for thirty minutes at room temperature with end-over-end rotation. The 150 μl quenched digest reaction is added to the 10 μl FLAG-coated Protein G beads and incubated for 60 minutes at room temperature with end-over-end rotation to capture phage particles released at the protease digest step. Beads are rinsed once with 100 μl wash buffer and stored at −80° C. until PCR amplification.
Library PCR preparation, high-throughput DNA sequencing, and peptide read count data generation was performed as described previously.^44 Briefly, library peptide inserts are amplified by resuspending 10 μl of FLAG-coated Protein G beads in PCR1 master mix containing the T7-Pep2_PCR1_F forward primer ([…]) (SEQ ID NO:3) and a T7-SEPARATE vector specific reverse primer ([…]) (SEQ ID NO:4), which includes an adapter sequence for sample-specific barcoding and Illumina P7 adapter incorporation during a subsequent PCR2 reaction. The PCR2 amplicons are pooled and sequenced using an Illumina NextSeq instrument in standard output mode to obtain single-end 50 nucleotide reads. Dual indexed sample demultiplexing and clonal read count determination were performed using exact sequence matching. […] To calculate the normalization factor, 100 peptides were randomly selected from the mock digest conditions with a read count ranging between 10 and 40. The median read count value for these 100 peptides is calculated for each sample. The random peptide selection and median calculation is performed 20 times and the average of the 20 median values is calculated for each sample. Finally, the normalization factor is calculated by dividing the average median value for each sample by that for one of the mock digest conditions. Read counts are then converted to normalized read counts by dividing each sample's read count values by the normalization factor. Fold enrichments are calculated for each peptide by dividing their normalized read counts in the digest condition by the normalized read counts in the mock digest condition. The fold enrichments can be visualized in an MA plot by transforming the normalized read count data into a log ratio (M, on the y-axis) and a mean average (A, on the x-axis) between the digest and mock digest conditions.
The performance of the SEPARATE assay is expected to depend on protease-substrate requirements as well as biophysical features of the peptide library. The present inventors have verified by PCR and Sanger sequencing that 90% of the immobilized human library lacks in-frame mutations. […] To explore this further, a 56-amino acid mouse peptidome library (unpublished) was used in which both IL-1β and Gasdermin-D cleavage peptides are better represented. […] Mouse IL-1β and Gasdermin-D are highly similar to the human versions and can serve as substrates for human Caspase-1. […]

[5] = target: T3, Thrombin (Homo sapiens, UniProt P00734); test: SEPARATE assay: human peptidome library digest with Thrombin; type: biochemical; conditions: human library, Thrombin
T3 construct: Thrombin (a serine protease); purchased SignalChem
Experimental: The PCR2 amplicons are pooled and sequenced using an Illumina NextSeq instrument in standard output mode to obtain single-end 50 nucleotide reads. Dual indexed sample demultiplexing and clonal read count determination were performed using exact sequence matching. […] To calculate the normalization factor, 100 peptides were randomly selected from the mock digest conditions with a read count ranging between 10 and 40. The median read count value for these 100 peptides is calculated for each sample. The random peptide selection and median calculation is performed 20 times and the average of the 20 median values is calculated for each sample. Finally, the normalization factor is calculated by dividing the average median value for each sample by that for one of the mock digest conditions. […]

Substance | Caspase1 fold change [4] | also measured
HECT, UBA and WWE Domain Containing E3 Ubiquitin Protein Ligase 1 [HUWE1] |  | cleavage by endogenous Caspase-1 upon inflammasome activation (Western blot) [1]: cleavage; enrichment in SEPARATE on a complex biological mixture [2]: among the most significantly enriched targets; cleavage of endogenous HUWE1 (Western blot) [3]: robust cleavage
IL1B 74-130: 56-amino acid mouse peptidome library peptide of IL-1β (WQLPVSFPWTFQDEDMSTFFSFIFEEEPILCDSWDDDDNLLVCDVPIRQLHYRLRDE; UniProt P10749 74-130, looked up, fragment) | 13.23 fold | 
Fibrinogen |  | scoring in the SEPARATE assay [5]: did not score
GSDMD 259-315: 56-amino acid mouse peptidome library peptide of Gasdermin-D (NVLAALCSIGKQLSLLSDGIDEEELIEAADFQGLYAEVKACSSELESLEMELRQQIL; UniProt Q9D8T2 259-315, looked up, fragment) | 6.78 fold | 
HUWE1 2328-2384: 56-amino acid mouse peptidome library peptide of HUWE1 (VVIAGQPEVLSSQEMQVENELEDLIDELLERDGGSGNSTIIVSRSGEDESQEDVLMD; UniProt Q7TMY8 2328-2384, looked up, fragment) | 23.12 fold | 
IL1B 0-56: 56-amino acid mouse peptidome library peptide of IL-1β (MATVPELNCEMPPFDSDENDLFFEVDGPQKMKGCFQTFDLGCPDESIQLQISQQHI; UniProt P10749 1-56, looked up, fragment) | 8.10 fold | 

Second part, led by results:

Caspase1 fold change [4] | Substance | also measured
4.23 fold | GSDMD 222-278: 56-amino acid mouse peptidome library peptide of Gasdermin-D (LLIGSKWDILLVSDEKQRTFEPSSGDRKAVGQRHHGLNVLAALCSIGKQLSLLSDGI; UniProt Q9D8T2 222-278, looked up, fragment) | 
6.13 fold | HUWE1 2291-2347: 56-amino acid mouse peptidome library peptide of HUWE1 (QDPGEPGEAEVQEEDHDVTQTEVADGDIMDGEAETDSVVIAGQPEVLSSQEMQVENE; UniProt Q7TMY8 2291-2347, looked up, fragment) | 
8.80 fold | IL1B 75-131: 56-amino acid mouse peptidome library peptide of IL-1β (QLPVSFPWTFQDEDMSTFFSFIFEEEPILCDSWDDDDNLLVCDVPIRQLHYRLRDEQ; UniProt P10749 75-131, looked up, fragment) | 
